Target: SSB single-stranded DNA-binding protein (Escherichia coli, UniProt P0AGE0 P0AGE0:2-178)
Test: FP; complex of 5 nM Cy5-dT15 with 20 nM SSB, disrupted by compounds; 25 mM MOPS pH 7.5, 1.25 mM MgCl2
Details: tags: Promega; chain copies: 4; label: 5'-Cy5
Protocol: The Escherichia coli SSB assay was performed in a total volume of 20.2 μl in 384-well, flat-bottom, low volume, black microplates (Greiner Bio-One).
For IC₅₀ determination, assays were performed with 60 μl total volume in black flat bottomed 384-well microplates (Corning). First, 3.0 μl of DMSO or compound dissolved in DMSO was added, such that the final concentration of DMSO was 5% (v/v) in each assay.

SSB single-stranded DNA-binding protein, sequence (P0AGE0 2-178, one chain of several): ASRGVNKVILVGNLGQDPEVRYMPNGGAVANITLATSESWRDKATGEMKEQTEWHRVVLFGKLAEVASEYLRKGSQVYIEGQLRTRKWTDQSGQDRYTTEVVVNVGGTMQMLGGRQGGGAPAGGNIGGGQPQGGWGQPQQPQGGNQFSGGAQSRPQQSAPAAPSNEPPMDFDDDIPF

B1: Cy5-dT15 (ssDNA)
DNA: TTTTTTTTTTTTTTT
binding result: binds
